Experimental data from patent publication US20180142032A1 (Sanofi, published 2018).
Numbering of substitutions follows the chain as printed. Read-outs that look alike come from different tables or passages of the source.

B1: chMAb1 (antibody, human IgG1, kappa)
heavy: not shown
light: DIQMTQSPPSLSASLGGKVTITCKASQDIDRYMAWYQDKPGKGPRLLIHDTSTLQPGIPSRFSGSGSGRDYSFSISNLEPEDIATYYCLQYDNLWTFGGGTKLEIKRTVAAPSVFIFPPSDEQLKSGTASVVCLLNNFYPREAKVQWKVDNALQSGNSQESVTEQDSKDSTYSLSSTLTLSKADYEKHKVYACEVTHQGLSSPVTKSFNRGEC
notes: chimeric, human IgG1, Ckappa; also called MAb1 (chimeric)
B2: DM4-SPDB-huMAb1_1 (antibody, human IgG1, kappa)
heavy: not shown
light: DIQMTQSPSSLSASVGDRVTITCKASQDIDRYMAWYQDKPGKAPRLLIHDTSTLQSGVPSRFSGSGSGRDYTLTISNLEPEDFATYYCLQYDNLWTFGGGTKVEIKRTVAAPSVFIFPPSDEQLKSGTASVVCLLNNFYPREAKVQWKVDNALQSGNSQESVTEQDSKDSTYSLSSTLTLSKADYEKHKVYACEVTHQGLSSPVTKSFNRGEC
modifications: DM4 linked through SPDB, average DAR 3.4 per antibody; sites not stated
notes: antibody drug conjugate of huMAb1_1
B3: chMAb3 (antibody, human IgG1, kappa, V domains shown)
VH: QIQLVQSGPELKKPGETVKISCKASGYIFTNYGMNWVKQAPGKGLKWMGWINTYTGESRYADDFKGRFALSLETSASTAYLQINNLENEDMATYFCAREDYYGNSPWFFDVWGAGTTVTVSS
VL: DIQMTQTTSSLSASLGDRVTISCNASQGINKYLNWYQQKPDGTVKLLIYYTSTLHSGVPSRFSGSGSGTDYSLTINNLEPEDIATYYCQQYTKLPFTFGSGTKLEIKR
notes: chimeric, human IgG1, Ckappa

Experiments:
LAMP1::histag = target: T1, LAMP1::histag (human, UniProt P11279 29-382); test: ELISA on secreted human LAMP1
T1 construct: extracellular domain without signal peptide, C-terminal 6 His tag, made in HEK293 cells; also called recombinant human LAMP1; human LAMP1 (29-382)
T1 sequence: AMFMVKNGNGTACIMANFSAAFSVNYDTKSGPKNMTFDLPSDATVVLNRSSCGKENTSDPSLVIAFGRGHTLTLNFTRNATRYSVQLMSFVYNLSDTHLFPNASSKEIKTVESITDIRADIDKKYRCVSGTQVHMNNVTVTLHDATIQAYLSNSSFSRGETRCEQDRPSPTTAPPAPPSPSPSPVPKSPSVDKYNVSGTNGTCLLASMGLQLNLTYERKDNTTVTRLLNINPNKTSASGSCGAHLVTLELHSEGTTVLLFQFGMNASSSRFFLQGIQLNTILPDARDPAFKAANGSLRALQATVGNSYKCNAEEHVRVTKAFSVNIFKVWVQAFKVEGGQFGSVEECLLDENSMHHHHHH

mLAMP1::histag = target: T2, mLAMP1::histag (mouse, UniProt P11438 25-369); test: ELISA
T2 construct: also called mouse LAMP1 (25-369); Mouse LAMP1
T2 sequence: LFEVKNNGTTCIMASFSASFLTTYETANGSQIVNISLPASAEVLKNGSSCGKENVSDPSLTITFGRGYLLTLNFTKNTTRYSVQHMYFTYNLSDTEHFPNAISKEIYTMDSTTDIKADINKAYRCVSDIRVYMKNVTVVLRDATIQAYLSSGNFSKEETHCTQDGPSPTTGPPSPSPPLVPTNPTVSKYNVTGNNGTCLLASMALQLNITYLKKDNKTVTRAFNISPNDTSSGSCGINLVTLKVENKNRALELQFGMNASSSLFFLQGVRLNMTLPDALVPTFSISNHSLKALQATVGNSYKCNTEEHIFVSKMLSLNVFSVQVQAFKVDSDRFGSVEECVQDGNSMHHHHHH

[1] = target: T3, mLAMP1_L12_LAMP1_L34::histag (mouse/human hybrid); test: ELISA
T3 construct: mouse LAMP1 (25-189) and human LAMP1 (196-382), His tag; also called Loop1-2: mLAMP1 Loop3-4: hLAMP1
T3 chain: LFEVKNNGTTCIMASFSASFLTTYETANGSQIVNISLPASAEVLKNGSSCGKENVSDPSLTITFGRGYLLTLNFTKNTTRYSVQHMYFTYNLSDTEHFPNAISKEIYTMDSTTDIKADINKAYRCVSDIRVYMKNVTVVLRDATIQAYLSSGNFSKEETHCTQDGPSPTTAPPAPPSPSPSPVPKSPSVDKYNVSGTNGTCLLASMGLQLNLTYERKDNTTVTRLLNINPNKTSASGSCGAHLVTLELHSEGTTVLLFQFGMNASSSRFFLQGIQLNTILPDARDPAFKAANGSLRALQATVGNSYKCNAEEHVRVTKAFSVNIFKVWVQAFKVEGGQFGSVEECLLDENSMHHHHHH

[2] = target: T4, human LAMP1 at the cell surface (human, UniProt P11279 29-417); test: flow cytometry, HCT116 huLAMP1 clone 8
T4 construct: native on tumour cells (PDX, Colo205, SW480, LS174T) or from the cloned CDS NM_005561.3 in HEK293 and HCT116; signal peptide 1-28 left out; also called huLAMP1; full length human LAMP1
T4 sequence: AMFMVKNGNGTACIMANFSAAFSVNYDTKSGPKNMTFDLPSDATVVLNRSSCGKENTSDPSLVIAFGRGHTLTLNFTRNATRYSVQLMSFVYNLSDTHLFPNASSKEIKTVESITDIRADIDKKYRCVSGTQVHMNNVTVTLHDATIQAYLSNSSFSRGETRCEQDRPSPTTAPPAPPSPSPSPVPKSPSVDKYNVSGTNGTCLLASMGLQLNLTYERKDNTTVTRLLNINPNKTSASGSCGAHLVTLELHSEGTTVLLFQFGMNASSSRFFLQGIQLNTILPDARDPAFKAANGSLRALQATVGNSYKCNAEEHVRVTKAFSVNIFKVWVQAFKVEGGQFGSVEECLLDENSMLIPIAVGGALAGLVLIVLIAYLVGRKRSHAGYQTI
Procedure: 100 μL/well of goat anti-human IgG conjugated with Alexa488 (Invitrogen; # A11013) was added for 1 h at 4° C. and washed two times with PBS 1% BSA. The antibody binding was evaluated after centrifugation and resuspension of cells in 100 ul fixing solution (paraformaldehyde at 4% in PBS). Samples were read using Galaxy® Flow Cytometry System (Partec).

[3] = target: T4, human LAMP1 at the cell surface; test: cell-based or functional assay
[4] = target: T5, cynomolgus monkey LAMP1 at the cell surface (cynomolgus monkey, UniProt P11279 29-417 (human entry)); test: flow cytometry
T5 construct: also called cynoLAMP1; cynomolgus LAMP1
T5 chain: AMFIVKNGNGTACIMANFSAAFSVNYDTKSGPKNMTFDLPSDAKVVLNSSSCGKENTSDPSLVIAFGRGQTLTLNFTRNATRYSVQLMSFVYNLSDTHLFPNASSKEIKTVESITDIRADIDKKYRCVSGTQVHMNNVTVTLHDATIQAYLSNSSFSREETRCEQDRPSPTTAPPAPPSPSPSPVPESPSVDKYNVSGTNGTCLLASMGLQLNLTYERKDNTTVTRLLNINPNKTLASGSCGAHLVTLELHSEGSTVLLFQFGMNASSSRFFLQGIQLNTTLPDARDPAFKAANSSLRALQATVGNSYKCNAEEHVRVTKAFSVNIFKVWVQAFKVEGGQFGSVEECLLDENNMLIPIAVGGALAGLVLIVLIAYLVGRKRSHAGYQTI

[5] = target: T5, cynomolgus monkey LAMP1 at the cell …; test: flow cytometry, HEK293 cynoLAMP1 clone 44
[6] = target: T4, human LAMP1 at the cell surface; test: cell-based or functional assay; remark: listed apart in the source
[7] = target: T4, human LAMP1 at the cell surface; test: flow cytometry, HCT116 huLAMP1 clone 8; remark: listed apart in the source
Procedure: HCT116 cells were infected by a lentiviral vector allowing stable integration of the human or the cynomolgus LAMP1 CDS in genomic DNA of cells. Individual clones with different densities of human or cynomolgus LAMP1 cell surface localization were derived from a pool of HCT116 infected cells. […] 100 μL/well of goat anti-human IgG conjugated with Alexa488 (Invitrogen; # A11013) was added for 1 h at 4° C. and washed two times with PBS 1% BSA. The antibody binding was evaluated after centrifugation and resuspension of cells in 100 μl fixing solution (paraformaldehyde at 4% in PBS). Samples were read using Galaxy® Flow Cytometry System (Partec). EC50 values were estimated using BIOST@T-SPEED software.

[8] = target: T6, mLAMP1_L1_LAMP1_L234::histag (mouse/human hybrid); test: ELISA
T6 construct: also called Loop1: mLAMP1 Loop2-4: hLAMP1
T6 chain: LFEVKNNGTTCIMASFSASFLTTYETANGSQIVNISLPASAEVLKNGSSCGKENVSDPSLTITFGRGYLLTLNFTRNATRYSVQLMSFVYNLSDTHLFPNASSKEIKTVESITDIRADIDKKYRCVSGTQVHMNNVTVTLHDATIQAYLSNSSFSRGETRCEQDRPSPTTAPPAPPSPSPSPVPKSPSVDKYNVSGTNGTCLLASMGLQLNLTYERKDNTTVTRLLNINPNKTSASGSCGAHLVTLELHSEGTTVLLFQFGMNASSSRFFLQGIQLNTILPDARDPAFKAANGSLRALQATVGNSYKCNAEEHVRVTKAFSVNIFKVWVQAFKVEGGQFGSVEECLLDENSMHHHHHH

hLAMP1_ΔGYQTI = target: T7, hLAMP1_ΔGYQTI (human, UniProt P11279 29-412); test: flow cytometry, transfected 293-F cells
T7 construct: also called pXL5626
T7 sequence: T4 sequence with G385A, Y386A, Q387A, T388A, I389A

LAMP1_mL1_hL234_ΔGYQTI = target: T8, LAMP1_mL1_hL234_ΔGYQTI (mouse; human); test: flow cytometry, transfected 293-F cells
T8 construct: on cells; also called pXL5668
T8 chain: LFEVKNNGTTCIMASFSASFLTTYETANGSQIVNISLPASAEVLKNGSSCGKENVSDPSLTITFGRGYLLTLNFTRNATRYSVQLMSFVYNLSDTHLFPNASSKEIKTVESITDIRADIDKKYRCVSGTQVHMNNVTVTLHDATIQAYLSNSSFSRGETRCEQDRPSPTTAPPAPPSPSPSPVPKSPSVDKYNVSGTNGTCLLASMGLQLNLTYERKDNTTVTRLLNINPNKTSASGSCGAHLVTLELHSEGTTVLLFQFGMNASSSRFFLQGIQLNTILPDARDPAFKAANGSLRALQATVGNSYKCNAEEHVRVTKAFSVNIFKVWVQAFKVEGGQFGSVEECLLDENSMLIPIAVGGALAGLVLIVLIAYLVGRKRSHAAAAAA

Binder | EC50 (LAMP1::histag) | binding result (mLAMP1::histag) | binding result [1] | EC50 [2] | ADCC EC50, NK batch 67125626389 [3] | ADCC EC50, NK batch 67125903091 [3] | ADCC EC50, NK batch 67130127373 [3] | ADCC EC50, NK batch 67130494552 [3] | ADCC EC50, NK batch 67130496259 [3] | Ratio of EC50s (cynoLAMP1 against huLAMP1) [4] | EC50 [5] | cytotoxicity IC50, HCT116 huLAMP1 clone 8 [6] | EC50 [7] | binding result [8] | mean fluorescence (hLAMP1_ΔGYQTI) | binding result (LAMP1_mL1_hL234_ΔGYQTI)
B1 | 0.09 nM | no binding | no binding | 6 nM | 0.05 nM | 0.76 nM | 0.009 nM | 0.2 nM | 0.6 nM |  |  |  |  |  |  | 
B2 |  |  |  |  |  |  |  |  |  | 2.65 | 33.5 nM | 0.1 nM | 12.7 nM |  |  | 
B3 |  | no binding | no binding |  |  |  |  |  |  |  |  |  |  | no binding | 640 | no binding
